Test results as given in US20190177417A1 (BIOATLA, published 2019).

Key:
[1] = biological target: T1, Axl protein (human, UniProt P30530 26-451); experiment: ELISA, 1:3 dilution, pH 6.0 over pH 7.4
T1 construct: extracellular domain; also called human Axl; hAxl
T1 sequence (looked up): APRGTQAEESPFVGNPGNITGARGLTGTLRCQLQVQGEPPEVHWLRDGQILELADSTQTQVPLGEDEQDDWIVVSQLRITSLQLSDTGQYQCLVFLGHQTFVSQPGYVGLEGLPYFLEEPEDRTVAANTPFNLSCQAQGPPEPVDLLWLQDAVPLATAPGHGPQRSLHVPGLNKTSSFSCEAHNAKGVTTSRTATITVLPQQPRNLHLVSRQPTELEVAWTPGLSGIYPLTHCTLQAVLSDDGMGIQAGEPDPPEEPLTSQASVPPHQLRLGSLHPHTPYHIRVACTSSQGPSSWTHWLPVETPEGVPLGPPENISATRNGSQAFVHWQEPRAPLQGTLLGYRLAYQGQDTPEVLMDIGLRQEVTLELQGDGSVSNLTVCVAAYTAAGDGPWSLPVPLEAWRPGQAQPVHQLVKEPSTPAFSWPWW

[2] = biological target: T1, Axl protein; experiment: ELISA, 1:9 dilution, pH 6.0 over pH 7.4

B1: HC-T030A (antibody, V domains shown)
VH: EVQLVQSGAEVKKPGATVKISCKVSGYSFAGHTMNWIRQPPGKGLEWIGLIKPSNGGTSYNQKFKGRVTISADKSISTAYLQWSSLKASDTAMYYCAHGHYESYFAMDYWGQGTLVTVSS
VL: DIQMTQSPSSLSASVGDRVTITCKASQDVSSAVAWYQQKPGQAPRLLIYWASTRHTGVPSRFSGSGSGTEFTLTISSLQPDDFATYYCQEHFSTPLTFGQGTKVEIK
- Affinity ELISA CPE mutant ratio (1:3, pH 6.0/7.4) [1]: 1.29 ratio
- Affinity ELISA CPE mutant ratio (1:9, pH 6.0/7.4) [2]: 1.76 ratio

B2: HC-N035I (antibody, V domains shown)
VH: EVQLVQSGAEVKKPGATVKISCKVSGYSFTGHTMIWIRQPPGKGLEWIGLIKPSNGGTSYNQKFKGRVTISADKSISTAYLQWSSLKASDTAMYYCAHGHYESYFAMDYWGQGTLVTVSS
VL: DIQMTQSPSSLSASVGDRVTITCKASQDVSSAVAWYQQKPGQAPRLLIYWASTRHTGVPSRFSGSGSGTEFTLTISSLQPDDFATYYCQEHFSTPLTFGQGTKVEIK
- Affinity ELISA CPE mutant ratio (1:3, pH 6.0/7.4) [1]: 2.81 ratio
- Affinity ELISA CPE mutant ratio (1:9, pH 6.0/7.4) [2]: 1.12 ratio

B3: HC-E102L (antibody, V domains shown)
VH: EVQLVQSGAEVKKPGATVKISCKVSGYSFTGHTMNWIRQPPGKGLEWIGLIKPSNGGTSYNQKFKGRVTISADKSISTAYLQWSSLKASDTAMYYCAHGHYLSYFAMDYWGQGTLVTVSS
VL: DIQMTQSPSSLSASVGDRVTITCKASQDVSSAVAWYQQKPGQAPRLLIYWASTRHTGVPSRFSGSGSGTEFTLTISSLQPDDFATYYCQEHFSTPLTFGQGTKVEIK
- Affinity ELISA CPE mutant ratio (1:3, pH 6.0/7.4) [1]: 3.27 ratio
- Affinity ELISA CPE mutant ratio (1:9, pH 6.0/7.4) [2]: 2.7 ratio

B4: HC-E102V (antibody, V domains shown)
VH: EVQLVQSGAEVKKPGATVKISCKVSGYSFTGHTMNWIRQPPGKGLEWIGLIKPSNGGTSYNQKFKGRVTISADKSISTAYLQWSSLKASDTAMYYCAHGHYVSYFAMDYWGQGTLVTVSS
VL: DIQMTQSPSSLSASVGDRVTITCKASQDVSSAVAWYQQKPGQAPRLLIYWASTRHTGVPSRFSGSGSGTEFTLTISSLQPDDFATYYCQEHFSTPLTFGQGTKVEIK
- Affinity ELISA CPE mutant ratio (1:3, pH 6.0/7.4) [1]: 1.93 ratio
- Affinity ELISA CPE mutant ratio (1:9, pH 6.0/7.4) [2]: 2.51 ratio

B5: HC-S059I (antibody, V domains shown)
VH: EVQLVQSGAEVKKPGATVKISCKVSGYSFTGHTMNWIRQPPGKGLEWIGLIKPSNGGTIYNQKFKGRVTISADKSISTAYLQWSSLKASDTAMYYCAHGHYESYFAMDYWGQGTLVTVSS
VL: DIQMTQSPSSLSASVGDRVTITCKASQDVSSAVAWYQQKPGQAPRLLIYWASTRHTGVPSRFSGSGSGTEFTLTISSLQPDDFATYYCQEHFSTPLTFGQGTKVEIK
- Affinity ELISA CPE mutant ratio (1:3, pH 6.0/7.4) [1]: 30.5 ratio
- Affinity ELISA CPE mutant ratio (1:9, pH 6.0/7.4) [2]: 2.06 ratio

B6: HC-H100R (antibody, V domains shown)
VH: EVQLVQSGAEVKKPGATVKISCKVSGYSFTGHTMNWIRQPPGKGLEWIGLIKPSNGGTSYNQKFKGRVTISADKSISTAYLQWSSLKASDTAMYYCAHGRYESYFAMDYWGQGTLVTVSS
VL: DIQMTQSPSSLSASVGDRVTITCKASQDVSSAVAWYQQKPGQAPRLLIYWASTRHTGVPSRFSGSGSGTEFTLTISSLQPDDFATYYCQEHFSTPLTFGQGTKVEIK
- Affinity ELISA CPE mutant ratio (1:3, pH 6.0/7.4) [1]: 1.88 ratio
- Affinity ELISA CPE mutant ratio (1:9, pH 6.0/7.4) [2]: 2.51 ratio

B7: HC-E102N (antibody, V domains shown)
VH: EVQLVQSGAEVKKPGATVKISCKVSGYSFTGHTMNWIRQPPGKGLEWIGLIKPSNGGTSYNQKFKGRVTISADKSISTAYLQWSSLKASDTAMYYCAHGHYNSYFAMDYWGQGTLVTVSS
VL: DIQMTQSPSSLSASVGDRVTITCKASQDVSSAVAWYQQKPGQAPRLLIYWASTRHTGVPSRFSGSGSGTEFTLTISSLQPDDFATYYCQEHFSTPLTFGQGTKVEIK
- Affinity ELISA CPE mutant ratio (1:3, pH 6.0/7.4) [1]: 1.52 ratio
- Affinity ELISA CPE mutant ratio (1:9, pH 6.0/7.4) [2]: 1.57 ratio

B8: HC-E102R (antibody, V domains shown)
VH: EVQLVQSGAEVKKPGATVKISCKVSGYSFTGHTMNWIRQPPGKGLEWIGLIKPSNGGTSYNQKFKGRVTISADKSISTAYLQWSSLKASDTAMYYCAHGHYRSYFAMDYWGQGTLVTVSS
VL: DIQMTQSPSSLSASVGDRVTITCKASQDVSSAVAWYQQKPGQAPRLLIYWASTRHTGVPSRFSGSGSGTEFTLTISSLQPDDFATYYCQEHFSTPLTFGQGTKVEIK
- Affinity ELISA CPE mutant ratio (1:3, pH 6.0/7.4) [1]: 3.7 ratio
- Affinity ELISA CPE mutant ratio (1:9, pH 6.0/7.4) [2]: 3.42 ratio

B9: HC-E102Y (antibody, V domains shown)
VH: EVQLVQSGAEVKKPGATVKISCKVSGYSFTGHTMNWIRQPPGKGLEWIGLIKPSNGGTSYNQKFKGRVTISADKSISTAYLQWSSLKASDTAMYYCAHGHYYSYFAMDYWGQGTLVTVSS
VL: DIQMTQSPSSLSASVGDRVTITCKASQDVSSAVAWYQQKPGQAPRLLIYWASTRHTGVPSRFSGSGSGTEFTLTISSLQPDDFATYYCQEHFSTPLTFGQGTKVEIK
- Affinity ELISA CPE mutant ratio (1:3, pH 6.0/7.4) [1]: 2.61 ratio
- Affinity ELISA CPE mutant ratio (1:9, pH 6.0/7.4) [2]: 1.99 ratio

B10: HC-S103D (antibody, V domains shown)
VH: EVQLVQSGAEVKKPGATVKISCKVSGYSFTGHTMNWIRQPPGKGLEWIGLIKPSNGGTSYNQKFKGRVTISADKSISTAYLQWSSLKASDTAMYYCAHGHYEDYFAMDYWGQGTLVTVSS
VL: DIQMTQSPSSLSASVGDRVTITCKASQDVSSAVAWYQQKPGQAPRLLIYWASTRHTGVPSRFSGSGSGTEFTLTISSLQPDDFATYYCQEHFSTPLTFGQGTKVEIK
- Affinity ELISA CPE mutant ratio (1:3, pH 6.0/7.4) [1]: 4.24 ratio
- Affinity ELISA CPE mutant ratio (1:9, pH 6.0/7.4) [2]: 2.23 ratio

B11: HC-P053N (antibody, V domains shown)
VH: EVQLVQSGAEVKKPGATVKISCKVSGYSFTGHTMNWIRQPPGKGLEWIGLIKNSNGGTSYNQKFKGRVTISADKSISTAYLQWSSLKASDTAMYYCAHGHYESYFAMDYWGQGTLVTVSS
VL: DIQMTQSPSSLSASVGDRVTITCKASQDVSSAVAWYQQKPGQAPRLLIYWASTRHTGVPSRFSGSGSGTEFTLTISSLQPDDFATYYCQEHFSTPLTFGQGTKVEIK
- Affinity ELISA CPE mutant ratio (1:3, pH 6.0/7.4) [1]: 1.4 ratio
- Affinity ELISA CPE mutant ratio (1:9, pH 6.0/7.4) [2]: 1.89 ratio

B12: HC-W110H (antibody, V domains shown)
VH: EVQLVQSGAEVKKPGATVKISCKVSGYSFTGHTMNWIRQPPGKGLEWIGLIKPSNGGTSYNQKFKGRVTISADKSISTAYLQWSSLKASDTAMYYCAHGHYESYFAMDYHGQGTLVTVSS
VL: DIQMTQSPSSLSASVGDRVTITCKASQDVSSAVAWYQQKPGQAPRLLIYWASTRHTGVPSRFSGSGSGTEFTLTISSLQPDDFATYYCQEHFSTPLTFGQGTKVEIK
- Affinity ELISA CPE mutant ratio (1:3, pH 6.0/7.4) [1]: 7.99 ratio
- Affinity ELISA CPE mutant ratio (1:9, pH 6.0/7.4) [2]: 0.932 ratio

B13: HC-H100D (antibody, V domains shown)
VH: EVQLVQSGAEVKKPGATVKISCKVSGYSFTGHTMNWIRQPPGKGLEWIGLIKPSNGGTSYNQKFKGRVTISADKSISTAYLQWSSLKASDTAMYYCAHGDYESYFAMDYWGQGTLVTVSS
VL: DIQMTQSPSSLSASVGDRVTITCKASQDVSSAVAWYQQKPGQAPRLLIYWASTRHTGVPSRFSGSGSGTEFTLTISSLQPDDFATYYCQEHFSTPLTFGQGTKVEIK
- Affinity ELISA CPE mutant ratio (1:3, pH 6.0/7.4) [1]: 2.42 ratio
- Affinity ELISA CPE mutant ratio (1:9, pH 6.0/7.4) [2]: 3.09 ratio

B14: HC-S059T (antibody, V domains shown)
VH: EVQLVQSGAEVKKPGATVKISCKVSGYSFTGHTMNWIRQPPGKGLEWIGLIKPSNGGTTYNQKFKGRVTISADKSISTAYLQWSSLKASDTAMYYCAHGHYESYFAMDYWGQGTLVTVSS
VL: DIQMTQSPSSLSASVGDRVTITCKASQDVSSAVAWYQQKPGQAPRLLIYWASTRHTGVPSRFSGSGSGTEFTLTISSLQPDDFATYYCQEHFSTPLTFGQGTKVEIK
- Affinity ELISA CPE mutant ratio (1:3, pH 6.0/7.4) [1]: 1.02 ratio
- Affinity ELISA CPE mutant ratio (1:9, pH 6.0/7.4) [2]: 1.93 ratio
